From patent publication US20230265217A1 (TWIST BIOSCIENCE, published 2023)
Read-outs that look alike come from different tables or passages of the source.

What was measured:
[1] = target: T1, Antibody 178-10_His CA_W152C_L452R_D614G (27081) (SARS-CoV-2, UniProt P0DTC2 14-685); assay: Carterra SPR
T1 construct: domain: S1; also called CA variant S1; California variant S1

[2] = target: T2, Antibody 178-09_His B.1.1.7 (27080) (SARS-CoV-2, UniProt P0DTC2 14-685); assay: Carterra SPR
T2 construct: domain: S1; also called TB178-9

[3] = target: T3, S1 RBD L452R E484Q (Acro) (SARS-CoV-2, UniProt P0DTC2 319-537); assay: Carterra SPR
T3 construct: domain: S1 RBD; also called SARS-COV-2 RBD India Var; L452R E484Q S1; India variant mutation L452R E484Q

[4] = target: T4, Antibody 178-08_His 501.V2 (27079) (SARS-CoV-2, UniProt P0DTC2 14-685); assay: Carterra SPR
T4 construct: domain: S1; also called TB178-8

[5] = target: T5, SARS-CoV-2 S protein trimer (Alpha B.1.1.7 UK variant) [SPN-C52H6] (SARS-CoV-2, UniProt P0DTC2 16-1213); assay: binding kinetics, Carterra SPR
T5 construct: also called B.1.1.7 Alpha UK variant

[6] = target: T6, SARS-CoV-2 S protein trimer (Kappa B.1.617.1 India variant) [SPN-C52Hr] (SARS-CoV-2, UniProt P0DTC2 16-1213); assay: binding kinetics, Carterra SPR
T6 construct: also called B.1.617.1 Kappa India variant

[7] = target: T7, SARS-CoV-2 S protein trimer (Delta B.1.617.2 India variant) [SPN-C52He] (SARS-CoV-2, UniProt P0DTC2 16-1213); assay: binding kinetics, Carterra SPR
T7 construct: also called B.1.617.2 Delta India variant [SPN-C52he]

[8] = target: T8, SARS-CoV-2 S protein trimer (Beta B.1.351 SA variant) [SPN-C52Hk] (SARS-CoV-2, UniProt P0DTC2 16-1213); assay: binding kinetics, Carterra SPR
T8 construct: also called B.1.351 Beta SA variant

[9] = target: SARS-CoV-2 S protein trimer [SPN-C52H9] (SARS-CoV-2, UniProt P0DTC2 16-1213); assay: binding kinetics, Carterra SPR
[10] = target: T1, Antibody 178-10_His …; assay: Carterra SPR; remark: listed apart in the source
[11] = target: T2, Antibody 178-09_His B.1.1.7 (27080); assay: Carterra SPR; remark: listed apart in the source
[12] = target: T3, S1 RBD L452R E484Q (Acro); assay: Carterra SPR; remark: listed apart in the source
[13] = target: T4, Antibody 178-08_His 501.V2 (27079); assay: Carterra SPR; remark: listed apart in the source
[14] = target: T9, SARS-CoV-2 S1 [S1N-C52H4] (SARS-CoV-2, UniProt P0DTC2 16-685); assay: Carterra SPR
T9 construct: domain: S1

[15] = target: SARS-CoV-2 S protein trimer (P.1 Gamma Brazil variant) [SPN-C52Hg] (SARS-CoV-2, UniProt P0DTC2 16-1213); assay: Carterra SPR
[16] = target: SARS-CoV-2 S protein trimer [SPN-C52H7] (SARS-CoV-2, UniProt P0DTC2 16-1213); assay: Carterra SPR
[17] = target: T5, SARS-CoV-2 S protein trimer (Alpha …); assay: Carterra SPR
[18] = target: T8, SARS-CoV-2 S protein trimer (Beta …); assay: Carterra SPR
[19] = target: T6, SARS-CoV-2 S protein trimer (Kappa …); assay: Carterra SPR
[20] = target: T7, SARS-CoV-2 S protein trimer (Delta …); assay: Carterra SPR

B1: 7-37 (VHH)
VHH: EVQLVESGGGLVQPGGSLRLSCAASGSTLSINAMGWFRQAPGKEREFVAGITRSGSVTNYADSVKGRFTISADNSKNTAYLQMNSLKPEDTAVYYCAADGVPEYSDYASGPVWGQGTLVTVSS
Kd [1]: 45.1 nM | Kd [2]: 17.8 nM | Kd [3]: 58.5 nM | Kd [4]: 123 nM | Kd [5]: 0.0131 nM | koff [5]: 1.15e-05 s⁻¹ | kon [5]: 875000 M⁻¹ s⁻¹ | Kd [6]: 0.0171 nM | koff [6]: 1.67e-05 s⁻¹ | kon [6]: 977000 M⁻¹ s⁻¹ | Kd [7]: ≤ 0.0102 nM | koff [7]: ≤ 1e-05 s⁻¹ | kon [7]: 978000 M⁻¹ s⁻¹ | Kd [8]: 0.0224 nM | koff [8]: 2.3e-05 s⁻¹ | kon [8]: 1.03e+06 M⁻¹ s⁻¹ | Kd [9]: ≤ 0.0118 nM | koff [9]: ≤ 1e-05 s⁻¹ | kon [9]: 844000 M⁻¹ s⁻¹ | Kd [10]: 45.1 nM | Kd [11]: 17.8 nM | Kd [12]: 58.5 nM | Kd [13]: 123 nM | Kd [14]: 20.8 nM | koff [14]: 0.000651 s⁻¹ | kon [14]: 31400 M⁻¹ s⁻¹ | Kd [15]: 0.0322 nM | koff [15]: 2.92e-05 s⁻¹ | kon [15]: 906000 M⁻¹ s⁻¹ | Kd [16]: 0.026 nM | koff [16]: 1.77e-05 s⁻¹ | kon [16]: 680000 M⁻¹ s⁻¹ | Kd [17]: 0.0201 nM | koff [17]: 1.52e-05 s⁻¹ | kon [17]: 757000 M⁻¹ s⁻¹ | Kd [18]: 0.03 nM | koff [18]: 2.83e-05 s⁻¹ | kon [18]: 944000 M⁻¹ s⁻¹ | Kd [19]: 0.0276 nM | koff [19]: 2.38e-05 s⁻¹ | kon [19]: 862000 M⁻¹ s⁻¹ | Kd [20]: 0.0191 nM | koff [20]: 1.62e-05 s⁻¹ | kon [20]: 844000 M⁻¹ s⁻¹
